Publication PMC3359993
Like-named read-outs stand apart in the source and are kept apart here.

Key:
[1] = molecular target: Dorsal, truncated (RHD, NLS and 20 additional C-terminal residues), StrepTagII-tagged (Drosophila melanogaster); assay: SEC; gel filtration of each purified recombinant protein, compared with molecular mass standards
[2] = molecular target: T1, Ank-H4 of Microplitis demolitor bracovirus, full length, N-terminal His tag (Microplitis demolitor bracovirus (MdBV)); assay: SPR; Biacore 3000, room temperature; IkB or Ank immobilised on CM5 by amine coupling (about 5500 RU); Rel homodimer as analyte, kinetic titration, five doubling injections (typically 160 nM to 2.56 uM), 60 or 90 s, 30 uL/min; 10 mM HEPES pH 7.4, 150 mM NaCl, 3.4 mM EDTA, 0.005% P20; 1:1 Langmuir …
[3] = molecular target: T1, Ank-H4 of Microplitis demolitor …; assay: as above; remark: listed apart in the source
[4] = molecular target: T2, Rel-49, the C-terminal IkB domain of Relish, N-terminal StrepTagII and C-terminal His tag (Drosophila melanogaster); assay: as above
T2 sequence (Q94527 whole entry, looked up): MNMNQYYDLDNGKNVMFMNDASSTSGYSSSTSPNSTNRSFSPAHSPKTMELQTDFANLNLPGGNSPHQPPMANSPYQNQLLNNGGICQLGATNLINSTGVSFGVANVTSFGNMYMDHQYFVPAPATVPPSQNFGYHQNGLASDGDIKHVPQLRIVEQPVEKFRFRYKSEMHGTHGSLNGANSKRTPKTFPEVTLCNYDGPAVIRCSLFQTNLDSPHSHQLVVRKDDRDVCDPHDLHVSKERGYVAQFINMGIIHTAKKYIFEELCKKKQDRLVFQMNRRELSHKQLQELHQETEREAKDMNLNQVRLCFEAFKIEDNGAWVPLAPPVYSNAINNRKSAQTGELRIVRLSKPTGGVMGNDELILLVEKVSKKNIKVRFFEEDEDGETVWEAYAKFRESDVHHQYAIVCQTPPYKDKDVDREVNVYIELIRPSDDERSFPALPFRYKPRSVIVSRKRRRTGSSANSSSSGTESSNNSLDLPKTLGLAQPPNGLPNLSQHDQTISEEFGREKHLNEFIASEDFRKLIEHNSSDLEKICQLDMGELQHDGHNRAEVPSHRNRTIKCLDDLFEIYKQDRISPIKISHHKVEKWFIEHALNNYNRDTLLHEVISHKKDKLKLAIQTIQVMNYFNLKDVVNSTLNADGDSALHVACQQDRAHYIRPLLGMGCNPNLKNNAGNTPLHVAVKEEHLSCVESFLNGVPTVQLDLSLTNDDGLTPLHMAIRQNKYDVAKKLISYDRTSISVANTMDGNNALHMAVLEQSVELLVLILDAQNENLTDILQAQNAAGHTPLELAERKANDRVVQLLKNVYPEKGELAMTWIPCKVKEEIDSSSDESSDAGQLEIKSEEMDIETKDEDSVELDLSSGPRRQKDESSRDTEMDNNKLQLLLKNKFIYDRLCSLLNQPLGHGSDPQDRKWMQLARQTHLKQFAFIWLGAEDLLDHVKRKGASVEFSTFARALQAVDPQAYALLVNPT

[5] = molecular target: Ank-N5 of Microplitis demolitor bracovirus, full length, N-terminal His tag (Microplitis demolitor bracovirus (MdBV)); assay: as above
[6] = molecular target: Relish, truncated (RHD, NLS and 20 additional C-terminal residues), StrepTagII-tagged (Drosophila melanogaster); assay: SEC; gel filtration of each purified recombinant protein, compared with molecular mass standards
[7] = molecular target: Dorsal, truncated (RHD, NLS and 20 additional C-terminal residues), N-terminal thioredoxin fusion (Drosophila melanogaster); assay: as above
[8] = molecular target: Relish, truncated (RHD, NLS and 20 additional C-terminal residues), N-terminal thioredoxin fusion (Drosophila melanogaster); assay: as above

T1 sequence (Q5I144 whole entry): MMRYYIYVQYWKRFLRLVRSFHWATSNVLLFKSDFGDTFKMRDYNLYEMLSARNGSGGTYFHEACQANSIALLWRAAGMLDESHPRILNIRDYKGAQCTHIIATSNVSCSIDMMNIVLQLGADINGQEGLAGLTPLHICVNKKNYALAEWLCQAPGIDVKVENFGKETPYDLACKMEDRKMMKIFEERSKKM
Ank-N5 of Microplitis demolitor bracovirus, full length, N-terminal His tag (Microplitis demolitor bracovirus (MdBV)), sequence (Q5I126 whole entry, the tested form may be a part): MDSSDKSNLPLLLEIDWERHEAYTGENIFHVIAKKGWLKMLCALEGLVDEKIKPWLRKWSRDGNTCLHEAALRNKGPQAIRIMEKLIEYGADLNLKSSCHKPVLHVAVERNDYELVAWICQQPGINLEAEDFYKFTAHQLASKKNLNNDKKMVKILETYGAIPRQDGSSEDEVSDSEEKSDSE

| Binder | stoichiometry N [1] | Kd [2] [nM] | Kd [3] [nM] | koff [3] [s⁻¹] | kon [3] [M⁻¹ s⁻¹] | Kd [4] [nM] | koff [4] [s⁻¹] | kon [4] [M⁻¹ s⁻¹] | Kd [5] [nM] | koff [5] [s⁻¹] | kon [5] [M⁻¹ s⁻¹] | stoichiometry N [6] | stoichiometry N [7] | stoichiometry N [8] |
| --- | --- | --- | --- | --- | --- | --- | --- | --- | --- | --- | --- | --- | --- | --- |
| Dorsal, truncated (RHD, NLS and 20 additional C-terminal residues), StrepTagII-tagged (domain or fragment, modifications not checked) PYVKITEQPAGKALRFRYECEGRSAGSIPGVNSTPENKTYPTIEIVGYKGRAVVVVSCVTKDTPYRPHPHNLVGKEGCKKGVCTLEINSETMRAVFSNLGIQCVKKKDIEAALKAREEIRVDPFKTGFSHRFQPSSIDLNSVRLCFQVFMESEQKGRFTSPLPPVVSEPIFDKKAMSDLVICRLCSCSATVFGNTQIILLCEKVAKEDISVRFFEEKNGQSVWEAFGDFQHTDVHKQTAITFKTPRYHTLDITEPAKVFIQLRRPSDGVTSEALPFEYVPMDSDPAHLRRKRQKTGGDPMHLLLQQQQKQQLQN | 2 | 858000 | 858 | 0.0067 | 7810 | 783 | 0.00645 | 8240 | 416 | 0.003 | 7230 |  |  |  |
| Relish, truncated (RHD, NLS and 20 additional C-terminal residues), StrepTagII-tagged (domain or fragment, modifications not checked) KHVPQLRIVEQPVEKFRFRYKSEMHGTHGSLNGANSKRTPKTFPEVTLCNYDGPAVIRCSLFQTNLDSPHSHQLVVRKDDRDVCDPHDLHVSKERGYVAQFINMGIIHTAKKYIFEELCKKKQDRLVFQMNRRELSHKQLQELHQETEREAKDMNLNQVRLCFEAFKIEDNGAWVPLAPPVYSNAINNRKSAQTGELRIVRLSKPTGGVMGNDELILLVEKVSKKNIKVRFFEEDEDGETVWEAYAKFRESDVHHQYAIVCQTPPYKDKDVDREVNVYIELIRPSDDERSFPALPFRYKPRSVIVSRKRRRTGSSANSSSSGTESSNNSLD |  |  | 345 | 0.0067 | 19400 | 2750 | 0.00378 | 1380 | 30300 | 0.00179 | 59 | 2 |  |  |
| Dorsal, truncated (RHD, NLS and 20 additional C-terminal residues), N-terminal thioredoxin fusion (domain or fragment, modifications not checked) PYVKITEQPAGKALRFRYECEGRSAGSIPGVNSTPENKTYPTIEIVGYKGRAVVVVSCVTKDTPYRPHPHNLVGKEGCKKGVCTLEINSETMRAVFSNLGIQCVKKKDIEAALKAREEIRVDPFKTGFSHRFQPSSIDLNSVRLCFQVFMESEQKGRFTSPLPPVVSEPIFDKKAMSDLVICRLCSCSATVFGNTQIILLCEKVAKEDISVRFFEEKNGQSVWEAFGDFQHTDVHKQTAITFKTPRYHTLDITEPAKVFIQLRRPSDGVTSEALPFEYVPMDSDPAHLRRKRQKTGGDPMHLLLQQQQKQQLQN |  |  |  |  |  |  |  |  |  |  |  |  | 2 |  |
| Relish, truncated (RHD, NLS and 20 additional C-terminal residues), N-terminal thioredoxin fusion (domain or fragment, modifications not checked) KHVPQLRIVEQPVEKFRFRYKSEMHGTHGSLNGANSKRTPKTFPEVTLCNYDGPAVIRCSLFQTNLDSPHSHQLVVRKDDRDVCDPHDLHVSKERGYVAQFINMGIIHTAKKYIFEELCKKKQDRLVFQMNRRELSHKQLQELHQETEREAKDMNLNQVRLCFEAFKIEDNGAWVPLAPPVYSNAINNRKSAQTGELRIVRLSKPTGGVMGNDELILLVEKVSKKNIKVRFFEEDEDGETVWEAYAKFRESDVHHQYAIVCQTPPYKDKDVDREVNVYIELIRPSDDERSFPALPFRYKPRSVIVSRKRRRTGSSANSSSSGTESSNNSLD |  |  |  |  |  |  |  |  |  |  |  |  |  | 2 |
